Positions count from the first letter of the chain named. Numbers in names are those of the source.
T1: IL-4 (UniProt P05112 25-153)
T1 sequence (looked up): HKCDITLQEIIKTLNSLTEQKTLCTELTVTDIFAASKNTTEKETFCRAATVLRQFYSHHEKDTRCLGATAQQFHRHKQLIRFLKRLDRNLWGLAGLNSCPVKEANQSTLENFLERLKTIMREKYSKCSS

T2: IL-7 (UniProt P13232 26-177)
T2 sequence (looked up): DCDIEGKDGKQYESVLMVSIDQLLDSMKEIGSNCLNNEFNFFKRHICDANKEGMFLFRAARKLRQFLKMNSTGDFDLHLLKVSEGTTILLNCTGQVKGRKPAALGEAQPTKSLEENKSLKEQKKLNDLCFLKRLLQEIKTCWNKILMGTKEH

B1: recombinant cynomolgus monkey IL-21 (ligand)
chain: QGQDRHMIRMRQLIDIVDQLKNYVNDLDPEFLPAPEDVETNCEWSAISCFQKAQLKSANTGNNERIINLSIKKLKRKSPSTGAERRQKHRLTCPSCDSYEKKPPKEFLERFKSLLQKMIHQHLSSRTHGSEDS
notes: also called cyno IL-21; cynoIL-21
B2: 9F11-4 (antibody, IgG1, V domains shown)
VH: EVQLVESGGGLVQPGGSLRLSCAASGFTFSDAWMDWVRQAPGKGLEWVAEIRSEADNHPTYYAESVKGRFTISRDDSKNSLYLQMNSLKTEDTAVYYCTEYDYEGFVHWGQGTLVTVSS
VL: DIVMTQTPLSLSVTPGQPASISCRASKSVSTYGYSYMHWYLQKPGQPPQLLIYLASNLESGVPDRFSGSGSGTDFTLKISRVEAEDVGVYYCQHSRELPLTFGQGTKLEIK
B3: 9F11-11 (antibody, IgG1, V domains shown)
VH: B2 VH
VL: B2 VL with M4L
B4: 9F11-6 (antibody, IgG1, V domains shown)
VH: B2 VH with L81V
VL: B2 VL
B5: murine monoclonal antibody 8B6 (antibody, V domains shown)
VH: EVQLVESGGGSVKPGGSLKLSCAASGLTFSHYYMYWVRQTPEKRLEWVAIISDGGDYTHYSDSVKGRFTISRDNAKNNLYLQMSSLQSEDTAMYYCAGDYGYGYEGWFAYWGQGTLVTVST
VL: DIVMTQSQKFMSTSVGDRVSVTCKASQNVDTYVAWYQQKPGQSPKALIYSTSYRYSGVPDRFTGSGSGTDFTLTISNVQSEDLAEYFCQQYNSYPWTFGGGTKLEIK
notes: also called 8B6.1
B6: murine monoclonal antibody 19E3 (antibody, V domains shown)
VH: QVQLQQPGSELVMPGASVKMSCKASGYIFTDYWMHWVKQRPGQGLEWIGTIDPSDNYTIYSQNFKGKATLTVDESSSTAYMLLSSLTSEDSAVYFCARYGFAMDYWGQGTSVTVSS
VL: DIQLTQTTSSLSASLGDRVTISCRASQDISNFLNWYQQTPDGTVKLLIYYTSRLHSGVPSRFSGSGSGTDYSLTISNLEQEDIATYFCQQGHTLPRTFGGGTKLEIK
notes: also called 19E3.1
B7: murine monoclonal antibody 9H10 (antibody, V domains shown)
VH: EVQLQQFGAEVVKPGASVKMSCKASGYTFTDYNMNWVKQSHEKSLEWIGDIHPKFHSTNYNQKFKGKATLTIDTSSSTAYMELRNLTSEDTAVYYCARVGNYVYFVMDYWGQGTSVTVSS
VL: SIVMTQTPKFLLVSAGDRVTITCKASQSVSNDVAWYQQKPGQSPKLLIYYASNRYTGVPDRFSGSGYGTDFTFTISTVQAEDLAVYFCQQDYTSPWTFGGGTKLEIK
notes: also called 9H10.1
B8: K44VHa6-N56Q (antibody, IgG1, V domains shown)
VH: QVQLVQSGAEVKKPGASVKVSCKASGYTFTDYWMHWVRQAPGQGLEWMGTIDPSDQYTIYSQNFKGRVTMTVDESTSTVYMELSSLRSEDTAVYYCARYGFAMDYWGQGTLVTVSS
VL: DIQLTQSPSSLSASVGDRVTITCRASQDISNFLNWYQQKPGKAVKLLIYYTSRLHSGVPSRFSGSGSGTDYTLTISSLQPEDFATYYCQQGHTLPRTFGGGTKVEIKR
B9: K2Ha-N56Q (antibody, human IgG1, kappa, V domains shown)
VH: B8 VH with V72R, E74T
VL: B8 VL with Y87F

How the values were obtained:
K44VHa-N56Q (MEDI7169) [1] = experiment: KinExA solution-phase equilibrium titration: fixed 50 pM K44VHa-N56Q (MEDI7169) IgG, cynomolgus monkey IL-21 varied; free IgG captured on IL-21-coated beads (the competitor)
Description: (§1) The IL-21-coated Azlactone bead slurries were diluted to 30 mL with instrument buffer (PBS, pH 7.4, 0.02% NaN3) in a bead vial and affixed to the KinExA instrument. A user-defined timing program was used to sequentially transfer the IL-21/Azlactone beads to a capillary flow cell in the instrument, and individual sample mixtures were injected over the IL-21-coated beads. Unbound sample solution was removed by washing the beads with instrument buffer. A 1- or 2-μg/mL solution of the DyLight649-labeled, goat-anti-hulgG(H+L) secondary reagent (Thermo Scientific) was passed over the beads to detect receptor (K44VHa-N56Q) that remained bound to the IL-21-coated beads. […] The amount of fluorescence that remained associated with the beads was measured, and the signal was converted to percent free receptor (K44VHa-N56Q). […] Once the data had been collected for all samples in each series (500 fM and 50 pM K44VHa-N56Q), an isotherm was generated, which plotted the amount of free K44VHa-N56Q detected at each concentration of IL-21. The resulting 2 binding curves were then evaluated in a dual curve analysis using the instrument's evaluation software (KinExA Pro Software, v. 2.0.1.26, Sapidyne) from which individual KDS for each interaction were derived.
(§2) The binding of K44VHa-N56Q to human and cynomolgus monkey IL-21 was measured by KinExA. […]

K44VHa-N56Q (MEDI7169) [2] = experiment: KinExA solution-phase equilibrium titration: fixed 500 fM K44VHa-N56Q (MEDI7169) IgG, cynomolgus monkey IL-21 varied; free IgG captured on IL-21-coated beads (the competitor)
Description: as §1, §2

[3] = molecular target: IL-21 (species not stated in the assay) (Homo sapiens (Human), UniProt Q9HBE4 25-162, Biotinylated in the competition ELISA of paragraph 259 (sites not given); unlabelled in the other results.); experiment: cell-based or functional assay
recombinant human IL-21 [4] = molecular target: T3, recombinant human IL-21 (human, UniProt Q9HBE4 30-162, limits assumed); experiment: cell-based or functional assay
[5] = molecular target: B1; experiment: cell-based or functional assay
recombinant human IL-21 [6] = molecular target: T3, recombinant human IL-21; experiment: cell-based or functional assay; remark: listed apart in the source
[7] = molecular target: B1; experiment: cell-based or functional assay; remark: listed apart in the source
recombinant human IL-21 [8] = molecular target: T3, recombinant human IL-21; experiment: cell-based or functional assay; remark: listed apart in the source
[9] = molecular target: B1; experiment: cell-based or functional assay; remark: listed apart in the source
IL-2 = IL-2 (UniProt P60568 21-153); experiment: ELISA on plate-coated cytokine (2 µg/ml)
Description: (§3) ELISA was used to test cross reactivity of lead clones. Cytokines tested include 11-2, IL-4, IL-7, IL-9, and IL-15. Maxisorp ELISA plate (NUNC) was coated with 2 μg/ml of different cytokines in PBS at 4° C. overnight. The plate was then blocked with 3% BSA in PBST (PBS+0.1% Tween) at room temperature for one hour. Purified lead clone IgGs were serially diluted in PBST+3% BSA and the mixture was then added to each ELISA plate well and further incubated at room temperature for half an hour. After washing, secondary antibody-HRP was added to each well for 1 hour. Wells were washed first with PBST and then with PBS and the TMB solution from Pierce was added to detect the secondary antibody. After 5′ the reaction was stopped by the addition of 1N sulfuric acid. The plates were then read in an ELISA reader at 450 nm to detect the binding.

IL-4 = molecular target: T1, IL-4; experiment: ELISA on plate-coated cytokine (2 µg/ml)
Description: as §3

IL-7 = molecular target: T2, IL-7; experiment: ELISA on plate-coated cytokine (2 µg/ml)
Description: as §3

IL-15 = IL-15 (UniProt P40933 49-162); experiment: ELISA on plate-coated cytokine (2 µg/ml)
Description: as §3

recombinant human IL-21 [10] = molecular target: T3, recombinant human IL-21; experiment: cell-based or functional assay; remark: listed apart in the source
[11] = molecular target: B1; experiment: cell-based or functional assay; remark: listed apart in the source
recombinant human IL-21 [12] = molecular target: T3, recombinant human IL-21; experiment: method not stated for this clone (Table 2, column Kd hu)

T3 sequence (Q9HBE4 30-162 limits assumed, form in doubt): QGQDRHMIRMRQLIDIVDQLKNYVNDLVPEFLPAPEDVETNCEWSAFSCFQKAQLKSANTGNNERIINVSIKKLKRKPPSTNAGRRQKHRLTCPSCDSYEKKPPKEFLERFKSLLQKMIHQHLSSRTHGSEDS
Sequence of IL-21 (species not stated in the assay) (Q9HBE4 25-162 limits assumed): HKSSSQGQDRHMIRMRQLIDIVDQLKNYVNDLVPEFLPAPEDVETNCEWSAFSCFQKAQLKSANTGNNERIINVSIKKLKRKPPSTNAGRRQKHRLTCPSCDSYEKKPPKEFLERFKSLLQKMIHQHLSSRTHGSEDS
Sequence of IL-2 (P60568 21-153 limits assumed): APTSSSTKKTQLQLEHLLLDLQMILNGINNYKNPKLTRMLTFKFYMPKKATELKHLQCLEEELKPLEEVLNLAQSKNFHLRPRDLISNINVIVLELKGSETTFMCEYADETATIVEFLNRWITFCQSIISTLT
Sequence of IL-15 (P40933 49-162 limits assumed): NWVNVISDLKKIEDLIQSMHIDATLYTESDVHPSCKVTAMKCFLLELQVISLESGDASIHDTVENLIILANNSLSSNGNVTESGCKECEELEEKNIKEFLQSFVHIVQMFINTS

IC50 (read off the curve) (K44VHa-N56Q (MEDI7169) [1]) [nM]	IC50 (read off the curve) (K44VHa-N56Q (MEDI7169) [2]) [nM]	maximal inhibition in pSTAT3 assay [3] [%]	IC50 in pSTAT3 assay (human PBMCs, 20 pM IL-21) (recombinant human IL-21 [4]) [pM]	IC50 in pSTAT3 assay (human PBMCs, 20 pM IL-21) [5] [pM]	IC50 in NK-92 cell assay (IFNγ, 200 pM IL-21) (recombinant human IL-21 [6])	IC50 in NK-92 cell assay (IFNγ, 200 pM IL-21) [7]	IC50 in PC differentiation assay (2 nM IL-21) (recombinant human IL-21 [8]) [nM]	IC50 in PC differentiation assay (2 nM IL-21) [9] [nM]	binding result (IL-2)	binding result (IL-4)	binding result (IL-7)	binding result (IL-15)	IC50 of IL-21-induced proliferation of human naive CD4+ T cells (ATP, day 4) (recombinant human IL-21 [10]) [nM]	inhibition of IgG production by human B cells (recombinant human IL-21 [10]) [%]	inhibition of IgG production by human B cells [11] [%]	Kd (recombinant human IL-21 [12]) [nM]	Binder
~0.06	~0.001																B1
		100	12.1	52.2													B2
		100	13.6	45.9													B3
		100	13.2	50.8													B4
		100	115	228	944 pM	771 pM	> 200	8.9	no binding	no binding	no binding	no binding					B5
		100	3.15	5.99	41 pM	37 pM	1.53	0.775	no binding	no binding	no binding		0.061	> 99	> 99		B6
		100	328	160	20.2 nM	3.43 nM	116	29.8	no binding	no binding	no binding					0.108	B7
		100	5.5	9.75	54.8 pM	60.3 pM	0.573	0.659	no binding	no binding	no binding					0.000245	B8
		100	18.7	15.6	99 pM	83.4 pM	0.618	1.32	no binding	no binding	no binding					0.000403	B9

From patent US20200164069A1 (BOSTON PHARMACEUTICALS, published 2020)
